7 molecules from patent publication US20230272023A1 (HUMAN CELL, published 2023) can be followed below.

Assay [1] has as its target T1, human TrkA on TF1 erythroleukemic cells (human, UniProt P04629 33-796). Briefly: cell-based or functional assay.
In assay [2] the target is T1, human TrkA on TF1 erythroleukemic cells. Briefly: cell-based or functional assay. This is another data set of the same source.
For assay [3], the target named is T2, TrkA receptor immobilized on the Biacore chip (UniProt P04629 33-423, limits assumed). Briefly: SPR, Biacore 3000, 25 C, receptor amine-coupled on chip, NGF mutein as analyte, 1:1 Langmuir. The procedure: (§1) The binding experiments were performed on Biacore 3000 at 25° C. Receptors were directly immobilized by direct immobilization using EDC/NHS amine coupling kit and GE protocol. The receptor was coated until the desired RU. The unoccupied active sites on the chip were quenching by flowing 1 M ethanol amine. […] Data were analyzed using Biacore 3000 bia evaluation software (Biacore) using the values after reference subtraction. KD was determined by applying either local (for scouting) or global (full kinetics) 1:1 Langmuir fitting model. Full kinetics was performed with the range of analyte at a 2-fold serial dilution and flowed over the ligand from lowest to highest concentration range.
T2 sequence (P04629 33-423 limits assumed): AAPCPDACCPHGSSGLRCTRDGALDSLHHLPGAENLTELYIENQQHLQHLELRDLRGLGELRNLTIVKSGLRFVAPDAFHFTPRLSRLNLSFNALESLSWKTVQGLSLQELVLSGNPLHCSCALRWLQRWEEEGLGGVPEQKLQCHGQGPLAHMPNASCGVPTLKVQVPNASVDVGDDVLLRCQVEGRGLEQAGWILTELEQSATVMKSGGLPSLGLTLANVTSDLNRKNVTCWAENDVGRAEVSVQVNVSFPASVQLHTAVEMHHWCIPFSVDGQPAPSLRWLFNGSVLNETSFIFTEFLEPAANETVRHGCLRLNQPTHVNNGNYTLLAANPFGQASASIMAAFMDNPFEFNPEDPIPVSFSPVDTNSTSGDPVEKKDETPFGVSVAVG
In general terms: SPR reads the build-up and loss of mass on a sensor chip optically.

For assay [4], the target named is T3, p75^NTR receptor immobilized on the Biacore chip (UniProt P08138 29-250).
T3 sequence (looked up): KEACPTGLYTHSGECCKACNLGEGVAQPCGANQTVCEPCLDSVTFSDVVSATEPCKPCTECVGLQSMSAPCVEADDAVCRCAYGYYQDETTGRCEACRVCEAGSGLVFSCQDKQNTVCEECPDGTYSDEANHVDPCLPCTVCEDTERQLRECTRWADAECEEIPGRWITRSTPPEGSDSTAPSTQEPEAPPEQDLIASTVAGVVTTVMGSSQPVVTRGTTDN
Briefly: SPR, Biacore 3000; Table 4 column Binding affinity (nM), P75^NTR. On the procedure: as §1

Assay [5] addresses T2, TrkA receptor immobilized on the …. Briefly: SPR, Biacore 3000; against NGF wt. On the procedure:
as §1

The target in assay [6] is T3, p75^NTR receptor immobilized on the …. Briefly: SPR, Biacore 3000; against NGF wt. On the procedure: as §1
Assay [7] concerns the target T2, TrkA receptor immobilized on the …. Briefly: SPR, Biacore 3000; ratio of the affinity for TrkA over that for p75^NTR. On the procedure: as §1
Assay [8] concerns the target T3, p75^NTR receptor immobilized on the …. Briefly: SPR, Biacore 3000, 25 C, receptor amine-coupled on chip, NGF mutein as analyte. The procedure:
as §1

Assay [9] concerns the target T1, human TrkA on TF1 erythroleukemic cells. Briefly: cell-based or functional assay. The source holds these as a separate data set.
Assay [10] addresses T2, TrkA receptor immobilized on the …. Briefly: SPR, Biacore 3000; Table 4 column Binding affinity (nM), TrkA receptor. On the procedure: as §1

Bounds are passed on as bounds.

T1 sequence (P04629 33-796): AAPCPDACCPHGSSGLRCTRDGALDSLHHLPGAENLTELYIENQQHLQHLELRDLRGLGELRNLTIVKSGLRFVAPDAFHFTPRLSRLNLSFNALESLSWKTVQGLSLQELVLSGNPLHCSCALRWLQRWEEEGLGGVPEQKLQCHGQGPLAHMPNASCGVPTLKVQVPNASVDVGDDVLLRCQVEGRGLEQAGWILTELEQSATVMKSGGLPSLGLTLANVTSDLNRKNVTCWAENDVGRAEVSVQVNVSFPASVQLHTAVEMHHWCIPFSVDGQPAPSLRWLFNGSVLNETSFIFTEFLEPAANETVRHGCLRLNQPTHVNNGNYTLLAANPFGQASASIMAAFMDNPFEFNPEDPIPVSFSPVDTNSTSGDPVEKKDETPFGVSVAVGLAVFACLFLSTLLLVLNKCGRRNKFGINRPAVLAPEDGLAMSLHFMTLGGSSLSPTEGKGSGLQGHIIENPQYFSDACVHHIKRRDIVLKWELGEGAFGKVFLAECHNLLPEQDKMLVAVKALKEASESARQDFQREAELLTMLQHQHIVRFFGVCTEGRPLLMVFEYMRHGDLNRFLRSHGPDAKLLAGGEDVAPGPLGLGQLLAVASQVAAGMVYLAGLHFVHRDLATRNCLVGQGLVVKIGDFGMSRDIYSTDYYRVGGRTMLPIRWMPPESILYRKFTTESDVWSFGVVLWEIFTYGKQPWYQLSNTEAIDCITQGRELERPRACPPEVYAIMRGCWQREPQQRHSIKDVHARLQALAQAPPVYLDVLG

B1: NGF K34A/R69A (ligand)
chain: SSSHPIFHRGEFSVCDSVSVWVGDKTTATDIKGAEVMVLGEVNINNSVFKQYFFETKCRDPNPVDSGCAGIDSKHWNSYCTTTHTFVKALTMDGKQAAWRFIRIDTACVCVLSRKAVRRA
On to B1, for which the “EC50 in TF-1 proliferation assay, protein kept 7 days at 4° C.” value (from here on “EC50 in TF-1 proliferation assay … at 4° C.”) in [1] turned out to be 9.13 ng/mL.

B2: NGF K34A/R69A/R100E (ligand)
chain: SSSHPIFHRGEFSVCDSVSVWVGDKTTATDIKGAEVMVLGEVNINNSVFKQYFFETKCRDPNPVDSGCAGIDSKHWNSYCTTTHTFVKALTMDGKQAAWEFIRIDTACVCVLSRKAVRRA
On to B2, for which the “EC50 in TF-1 proliferation assay … at 4° C.” value in [1] came to 689 ng/mL.

B3: NGF K34D/R69A (ligand)
chain: SSSHPIFHRGEFSVCDSVSVWVGDKTTATDIKGDEVMVLGEVNINNSVFKQYFFETKCRDPNPVDSGCAGIDSKHWNSYCTTTHTFVKALTMDGKQAAWRFIRIDTACVCVLSRKAVRRA
As to B3, in assay [1], the “EC50 in TF-1 proliferation assay … at 4° C.” value is 12.3 ng/mL.

B4: NGF K34D/R100E (ligand)
chain: SSSHPIFHRGEFSVCDSVSVWVGDKTTATDIKGDEVMVLGEVNINNSVFKQYFFETKCRDPNPVDSGCRGIDSKHWNSYCTTTHTFVKALTMDGKQAAWEFIRIDTACVCVLSRKAVRRA
As to B4, the “EC50 in TF-1 proliferation assay … at 4° C.” value in assay [1] was 58.8 ng/mL.

B5: NGF K34D/K32A (ligand)
chain: SSSHPIFHRGEFSVCDSVSVWVGDKTTATDIAGDEVMVLGEVNINNSVFKQYFFETKCRDPNPVDSGCRGIDSKHWNSYCTTTHTFVKALTMDGKQAAWRFIRIDTACVCVLSRKAVRRA
On to B5, for which, in [2], the “EC50 in TF-1 proliferation assay, 4° C.” value was 1.91 ng/mL and the “EC50 in TF-1 proliferation assay, after storage at 55° C.” value is 9.7 ng/mL.

B6: NGF K34D/R69A/R100D (ligand)
chain: SSSHPIFHRGEFSVCDSVSVWVGDKTTATDIKGDEVMVLGEVNINNSVFKQYFFETKCRDPNPVDSGCAGIDSKHWNSYCTTTHTFVKALTMDGKQAAWDFIRIDTACVCVLSRKAVRRA
For the molecule B6, the “EC50 in TF-1 proliferation assay … at 4° C.” value in [1] came to 23 ng/mL.

B7: NGF K34D/K32D (ligand)
chain: SSSHPIFHRGEFSVCDSVSVWVGDKTTATDIDGDEVMVLGEVNINNSVFKQYFFETKCRDPNPVDSGCRGIDSKHWNSYCTTTHTFVKALTMDGKQAAWRFIRIDTACVCVLSRKAVRRA
notes: Double mutein of mature human NGF; expressed in HEK293 cells; also called NGF34D/K32D; NGF34D/32 D
The Kd is the concentration at which binding is half-saturated. A low value points to higher affinity. Usually koff stands for the first-order rate constant of dissociation. A word on the kon: it is the rate constant with which the complex forms. A higher kon goes with faster complex formation. Take B7: in assay [3], binding was characterised by a dissociation constant (Kd) of 607 pM, the koff stood at 0.00398 s⁻¹ and the kon is 6.54e+06 M⁻¹ s⁻¹. In [2], the “EC50 in TF-1 proliferation assay, 4° C.” value came to 2.62 ng/mL and the “EC50 in TF-1 proliferation assay, after storage at 55° C.” value is 1.15 ng/mL. In addition, the Kd in assay [4] is over 200000 pM. In addition, in [5], the “binding affinity, % of wildtype” value was 5.9 % of wildtype and the “fold reduction of binding affinity against wildtype” value is 18 fold. For the same molecule, in assay [6], the “fold reduction of binding affinity against wildtype” value was 625 fold. For the same molecule, in assay [7], the “Binding selectivity (TrkA/p75^NTR)” value was over 328 fold. Also, in [8], the Kd was over 200000 pM. In addition, the “TrkA receptor Bio-activity” value in assay [9] turned out to be 2.62 ng/mL. Further, binding in assay [10] was put at a Kd of 610 pM.
